According to US20260159607A1:

Experiments:
[1] = target: mouse DCLK1-CAR (on transduced T cells); assay: flow cytometry of CAR-transduced T cells stained with biotinylated DCLK1 protein (FL2-H), gate 'stained'; controls: T cells 3.19% (small print 3.18%), mock 3.17%
[2] = target: human DCLK1-CAR (on transduced T cells); assay: as above

% stained [1]: 11.6%
% stained [2]: 2.73%
Substance: Biotin-labeled DCLK1 (from UniProt O15075 1-740)
